# Measured values as given in US20040002457A1, “Inhibition of virus anchorage by RGG domain of a cell surface-expressed protein, polynucleotide coding for said RGG domain, therapeutic uses thereof by inhibition of microorganism or protein ligand binding to the cell-surface-expressed protein” (priority 2002, published 2004).
# No end group written: not given here.
# T1: cell-surface-expressed hamster nucleolin (on CHO K1, CHO 677 and CHO 618 cells) (Chinese hamster), A0A8C2
# T1 chain: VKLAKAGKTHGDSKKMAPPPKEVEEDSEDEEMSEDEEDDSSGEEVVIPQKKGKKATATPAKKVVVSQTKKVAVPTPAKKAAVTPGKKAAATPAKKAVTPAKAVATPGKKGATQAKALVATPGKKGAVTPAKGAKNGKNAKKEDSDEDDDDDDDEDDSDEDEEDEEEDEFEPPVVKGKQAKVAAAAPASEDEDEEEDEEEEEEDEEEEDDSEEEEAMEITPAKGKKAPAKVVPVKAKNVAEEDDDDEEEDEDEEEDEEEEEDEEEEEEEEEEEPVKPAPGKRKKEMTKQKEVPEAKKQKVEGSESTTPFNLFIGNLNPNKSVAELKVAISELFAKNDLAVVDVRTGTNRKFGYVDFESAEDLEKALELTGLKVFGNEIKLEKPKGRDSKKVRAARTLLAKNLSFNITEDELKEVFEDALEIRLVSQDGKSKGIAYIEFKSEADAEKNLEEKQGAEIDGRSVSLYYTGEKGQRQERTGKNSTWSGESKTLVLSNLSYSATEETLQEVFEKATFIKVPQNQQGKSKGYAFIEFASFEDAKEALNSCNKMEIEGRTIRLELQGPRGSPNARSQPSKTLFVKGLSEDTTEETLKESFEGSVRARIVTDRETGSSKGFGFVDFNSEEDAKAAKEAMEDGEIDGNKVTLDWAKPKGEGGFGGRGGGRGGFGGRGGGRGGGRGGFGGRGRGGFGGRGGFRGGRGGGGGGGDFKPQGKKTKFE
# B1: HB-19A, pseudopeptide 5[K-Psi(CH2N)-PR]-TASP with a modified TASP template (peptide)
# peptide: Lys-Pro-Arg
# chain: KKKKA
# modifications: also: reduced amide bond Psi(CH2N) between Lys and Pro in each KPR, five KPR copies on the KKKKA template: alpha-NH2 of the four template Lys and epsilon-NH2 of the N-terminal Lys, template Lys linked through their epsilon-NH2 groups
# Experiments:
# [1] = target: T1, cell-surface-expressed hamster …; test: biotinylated HB-19A on wild type CHO K1 cells, streptavidin-HRP
# [2] = target: cell-surface-expressed human nucleolin (on HeLa P4 and MT4 cells) (human), P19338; test: 125I-labeled HB-19A on HeLa P4 cell monolayers, wash at 300 mM NaCl
# cell-surface-expressed human nucleolin (on HeLa P4 and MT4 cells) (human), P19338, sequence (P19338 2-710): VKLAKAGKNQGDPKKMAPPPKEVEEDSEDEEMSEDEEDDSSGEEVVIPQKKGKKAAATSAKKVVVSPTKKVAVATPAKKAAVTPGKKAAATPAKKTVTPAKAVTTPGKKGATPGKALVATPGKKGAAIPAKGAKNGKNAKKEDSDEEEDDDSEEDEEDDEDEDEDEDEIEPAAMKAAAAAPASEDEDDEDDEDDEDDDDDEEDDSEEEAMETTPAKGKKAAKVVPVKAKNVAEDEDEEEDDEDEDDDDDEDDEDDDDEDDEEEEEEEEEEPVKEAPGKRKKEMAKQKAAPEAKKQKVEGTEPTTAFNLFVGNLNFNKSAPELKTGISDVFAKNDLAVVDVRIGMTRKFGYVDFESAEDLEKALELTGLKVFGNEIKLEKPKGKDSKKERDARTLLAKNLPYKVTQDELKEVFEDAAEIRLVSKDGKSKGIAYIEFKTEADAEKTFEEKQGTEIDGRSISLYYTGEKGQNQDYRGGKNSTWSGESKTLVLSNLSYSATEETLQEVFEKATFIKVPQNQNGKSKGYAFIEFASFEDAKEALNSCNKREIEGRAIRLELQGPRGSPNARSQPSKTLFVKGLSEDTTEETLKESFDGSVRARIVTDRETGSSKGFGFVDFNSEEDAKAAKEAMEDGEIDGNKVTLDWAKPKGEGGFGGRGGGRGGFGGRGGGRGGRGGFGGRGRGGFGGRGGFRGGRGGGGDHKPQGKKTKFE
# [3] = target: GST-R1234G, GST fusion of the C-terminal part of human nucleolin (RBDs I-IV and RGG domain) (human) (UniProt P19338); test: dose series 0-10 µM biotinylated HB-19A, avidin-agarose pull-down, anti-GST immunoblot
# GST-R1234G, GST fusion of the C-terminal part of human nucleolin (RBDs I-IV and RGG domain) (human), sequence (P19338 308-707, stated change not applied): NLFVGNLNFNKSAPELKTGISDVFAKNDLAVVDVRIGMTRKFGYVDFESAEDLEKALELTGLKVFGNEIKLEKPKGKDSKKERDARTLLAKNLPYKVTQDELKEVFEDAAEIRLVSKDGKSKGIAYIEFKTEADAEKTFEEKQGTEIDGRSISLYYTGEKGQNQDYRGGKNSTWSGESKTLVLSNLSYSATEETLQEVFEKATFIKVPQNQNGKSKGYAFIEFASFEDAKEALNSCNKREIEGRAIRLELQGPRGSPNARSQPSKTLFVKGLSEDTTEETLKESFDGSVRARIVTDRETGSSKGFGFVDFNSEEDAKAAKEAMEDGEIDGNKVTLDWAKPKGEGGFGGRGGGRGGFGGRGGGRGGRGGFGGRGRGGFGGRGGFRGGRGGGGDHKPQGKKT
# [4] = target: GST-R234G, GST fusion of human nucleolin RBDs II, III, IV and the RGG domain (human) (UniProt P19338); test: as above
# GST-R234G, GST fusion of human nucleolin RBDs II, III, IV and the RGG domain (human), sequence (P19338 389-710, stated change not applied): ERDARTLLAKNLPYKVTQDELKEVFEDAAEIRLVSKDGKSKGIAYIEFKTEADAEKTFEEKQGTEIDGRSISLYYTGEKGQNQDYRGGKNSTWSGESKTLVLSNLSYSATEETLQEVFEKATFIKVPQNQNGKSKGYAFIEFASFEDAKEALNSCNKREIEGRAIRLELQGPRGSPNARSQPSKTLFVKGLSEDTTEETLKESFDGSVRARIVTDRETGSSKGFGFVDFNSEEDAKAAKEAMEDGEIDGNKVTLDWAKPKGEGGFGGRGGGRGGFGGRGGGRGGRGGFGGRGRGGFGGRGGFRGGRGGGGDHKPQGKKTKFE
# [5] = target: GST-G, GST fusion of the RGG domain of human nucleolin alone (human), P19338; test: as above
# GST-G, GST fusion of the RGG domain of human nucleolin alone (human), P19338, sequence (P19338 648-710): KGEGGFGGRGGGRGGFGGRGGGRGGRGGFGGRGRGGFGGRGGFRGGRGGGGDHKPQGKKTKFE
binder,measurement,setting,value
B1,HB-19A concentration at saturation of binding,[1],1 µM
same,HB-19A concentration at saturation of specific binding,[2],1 µM
same,HB-19A concentration at maximum binding,[3],5 µM
same,HB-19A concentration at maximum binding,[4],5 µM
same,HB-19A concentration at maximum binding,[5],5 µM
